Measured values as given in paper PMC2756588.

What was measured:
Assay in all cases: SPOT array
Cyk3, Q07533 = molecular target: T1, Cyk3, Q07533; conditions: median of control spots 1451
T1 sequence (Q07533 1-83, looked up): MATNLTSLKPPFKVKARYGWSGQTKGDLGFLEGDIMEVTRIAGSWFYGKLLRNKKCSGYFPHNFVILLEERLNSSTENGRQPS

Bem1-2, P29366 = conditions: median of control spots 4347
Sla1-3, P32790 = molecular target: T2, Sla1-3, P32790; conditions: median of control spots 5475
T2 sequence (P32790 344-424, looked up): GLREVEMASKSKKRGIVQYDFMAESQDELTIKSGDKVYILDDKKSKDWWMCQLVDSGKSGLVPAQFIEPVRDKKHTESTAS

Cdc25, P04821 = molecular target: T3, Cdc25, P04821; conditions: median of control spots 969
T3 sequence (P04821 50-136, looked up): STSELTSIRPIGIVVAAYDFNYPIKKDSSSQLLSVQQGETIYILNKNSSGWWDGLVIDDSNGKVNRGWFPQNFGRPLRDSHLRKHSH

Nbp2, Q12163 = molecular target: T4, Nbp2, Q12163; conditions: median of control spots 357
T4 sequence (Q12163 103-180, looked up): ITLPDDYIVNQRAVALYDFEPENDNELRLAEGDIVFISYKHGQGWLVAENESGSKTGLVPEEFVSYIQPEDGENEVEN

Sho1, P40073 = conditions: median of control spots 1148
Chain of Sho1, P40073 (P40073 287-367): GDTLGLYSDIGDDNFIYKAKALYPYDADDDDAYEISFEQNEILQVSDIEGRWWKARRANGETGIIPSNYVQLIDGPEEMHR

Fus1, P11710 = molecular target: T5, Fus1, P11710; conditions: median of control spots 1200
T5 sequence (P11710 432-512, looked up): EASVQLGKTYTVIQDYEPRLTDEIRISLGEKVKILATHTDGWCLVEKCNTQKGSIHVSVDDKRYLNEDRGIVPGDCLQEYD

Boi2, P39969 = molecular target: T6, Boi2, P39969; conditions: median of control spots 1161
T6 sequence (P39969 32-116, looked up): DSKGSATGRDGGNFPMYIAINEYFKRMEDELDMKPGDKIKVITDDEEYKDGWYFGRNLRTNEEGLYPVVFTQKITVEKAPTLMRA

Lsb3, P43603 = molecular target: T7, Lsb3, P43603; conditions: median of control spots 406
T7 sequence (P43603 385-451, looked up): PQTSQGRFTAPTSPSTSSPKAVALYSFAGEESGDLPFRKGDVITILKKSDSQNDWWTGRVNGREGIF

Myo5, Q04439 = molecular target: T8, Myo5, Q04439; conditions: median of control spots 471
T8 sequence (Q04439 1072-1160, looked up): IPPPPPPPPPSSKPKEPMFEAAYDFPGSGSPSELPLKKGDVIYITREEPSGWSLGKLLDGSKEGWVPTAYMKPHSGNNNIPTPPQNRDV

Lsb4, P32793 = molecular target: T9, Lsb4, P32793; conditions: median of control spots 397
T9 sequence (P32793 402-468, looked up): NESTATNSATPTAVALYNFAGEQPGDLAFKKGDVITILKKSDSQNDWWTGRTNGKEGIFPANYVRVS

Sla1-2, P32790 = molecular target: T10, Sla1-2, P32790; conditions: median of control spots 712
T10 sequence (P32790 60-140, looked up): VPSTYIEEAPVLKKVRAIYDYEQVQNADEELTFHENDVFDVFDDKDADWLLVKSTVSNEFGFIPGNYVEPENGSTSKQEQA

Hof1, Q05080 = molecular target: T11, Hof1, Q05080; conditions: median of control spots 4086
T11 sequence (Q05080 590-669, looked up): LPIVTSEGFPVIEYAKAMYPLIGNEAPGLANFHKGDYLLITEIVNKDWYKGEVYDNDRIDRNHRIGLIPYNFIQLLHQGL

Rvs167, P39743 = conditions: median of control spots 2707
Chain of Rvs167, P39743 (P39743 419-482): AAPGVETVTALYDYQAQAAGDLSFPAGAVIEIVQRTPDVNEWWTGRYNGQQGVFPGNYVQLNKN

Bem1-1, P29366 = conditions: median of control spots 4282
Chain of Bem1-1, P29366 (P29366 55-141): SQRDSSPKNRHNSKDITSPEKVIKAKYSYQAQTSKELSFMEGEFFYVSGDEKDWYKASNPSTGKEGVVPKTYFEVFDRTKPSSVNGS

Bbc1, P47068 = molecular target: T12, Bbc1, P47068; conditions: median of control spots 796
T12 sequence (P47068 1-78, looked up): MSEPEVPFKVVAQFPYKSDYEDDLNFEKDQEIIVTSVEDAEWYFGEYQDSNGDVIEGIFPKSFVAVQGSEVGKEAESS

Lsb1, P53281 = molecular target: T13, Lsb1, P53281; conditions: median of control spots 388
T13 sequence (P53281 45-122, looked up): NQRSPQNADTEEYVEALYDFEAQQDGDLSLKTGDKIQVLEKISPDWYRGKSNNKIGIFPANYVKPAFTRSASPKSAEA

Myo3, P36006 = conditions: median of control spots 468
Pin3, Q06449 = molecular target: T14, Pin3, Q06449; conditions: median of control spots 2171
T14 sequence (Q06449 53-122, looked up): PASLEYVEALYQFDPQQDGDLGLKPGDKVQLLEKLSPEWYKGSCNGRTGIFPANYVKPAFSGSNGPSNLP

Bzz1-2, P38822 = molecular target: T15, Bzz1-2, P38822; conditions: median of control spots 4538
T15 sequence (P38822 568-633, looked up): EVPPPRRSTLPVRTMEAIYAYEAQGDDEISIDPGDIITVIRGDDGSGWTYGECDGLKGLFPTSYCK

Boi1, P38041 = molecular target: T16, Boi1, P38041; conditions: median of control spots 1162
T16 sequence (P38041 1-86, looked up): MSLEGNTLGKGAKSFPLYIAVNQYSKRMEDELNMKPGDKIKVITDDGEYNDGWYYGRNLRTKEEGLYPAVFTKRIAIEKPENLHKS

Hse1, P38753 = molecular target: T17, Hse1, P38753; conditions: median of control spots 1727
T17 sequence (P38753 208-285, looked up): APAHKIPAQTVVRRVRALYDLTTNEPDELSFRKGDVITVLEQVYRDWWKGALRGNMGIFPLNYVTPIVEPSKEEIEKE

Abp1, P15891 = molecular target: T18, Abp1, P15891; conditions: median of control spots 935
T18 sequence (P15891 535-592, looked up): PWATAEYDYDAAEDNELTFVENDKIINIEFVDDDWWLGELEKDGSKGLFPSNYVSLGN

Bud14, P27637 = molecular target: T19, Bud14, P27637; conditions: median of control spots 956
T19 sequence (P27637 247-328, looked up): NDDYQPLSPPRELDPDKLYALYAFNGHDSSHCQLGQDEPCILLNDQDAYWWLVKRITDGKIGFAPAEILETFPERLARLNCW

GST = conditions: median of control spots 978
Pex13, P80667 = molecular target: T20, Pex13, P80667; conditions: median of control spots 1341
T20 sequence (P80667 295-386, looked up): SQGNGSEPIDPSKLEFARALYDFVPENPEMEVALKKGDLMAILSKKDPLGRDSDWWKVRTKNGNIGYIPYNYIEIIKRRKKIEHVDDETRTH

Bzz1-1, P38822 = molecular target: T21, Bzz1-1, P38822; conditions: median of control spots 4446
T21 sequence (P38822 478-572, looked up): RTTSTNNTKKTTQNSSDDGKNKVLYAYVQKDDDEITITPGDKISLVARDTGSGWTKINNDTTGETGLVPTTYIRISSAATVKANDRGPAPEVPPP

Chain of Bem1-2, P29366 (P29366 139-227): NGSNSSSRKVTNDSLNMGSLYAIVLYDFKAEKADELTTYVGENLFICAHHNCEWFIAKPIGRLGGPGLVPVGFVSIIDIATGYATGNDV

QRIRKIPGIPLMSVG
SPOT intensity (Cyk3, Q07533): 2
SPOT intensity (Bem1-2, P29366): 0
SPOT intensity (Sla1-3, P32790): 8
SPOT intensity (Cdc25, P04821): 2
SPOT intensity (Nbp2, Q12163): 5
SPOT intensity (Sho1, P40073): 42
SPOT intensity (Fus1, P11710): 6
SPOT intensity (Boi2, P39969): 0
SPOT intensity (Lsb3, P43603): 51
SPOT intensity (Myo5, Q04439): 7
SPOT intensity (Lsb4, P32793): 24
SPOT intensity (Sla1-2, P32790): 4
SPOT intensity (Hof1, Q05080): 13
SPOT intensity (Rvs167, P39743): 156
SPOT intensity (Bem1-1, P29366): 0
SPOT intensity (Bbc1, P47068): 16
SPOT intensity (Lsb1, P53281): 78
SPOT intensity (Myo3, P36006): 28
SPOT intensity (Pin3, Q06449): 71
SPOT intensity (Bzz1-2, P38822): 13
SPOT intensity (Boi1, P38041): 0
SPOT intensity (Hse1, P38753): 7
SPOT intensity (Abp1, P15891): 110
SPOT intensity (Bud14, P27637): 9
SPOT intensity (GST): 0
SPOT intensity (Pex13, P80667): 90
SPOT intensity (Bzz1-1, P38822): 0

LASNSPPVYPKRIRH
SPOT intensity (Cyk3, Q07533): 0
SPOT intensity (Bem1-2, P29366): 0
SPOT intensity (Sla1-3, P32790): 0
SPOT intensity (Cdc25, P04821): 0
SPOT intensity (Nbp2, Q12163): 0
SPOT intensity (Sho1, P40073): 7
SPOT intensity (Fus1, P11710): 0
SPOT intensity (Boi2, P39969): 0
SPOT intensity (Lsb3, P43603): 167
SPOT intensity (Myo5, Q04439): 0
SPOT intensity (Lsb4, P32793): 107
SPOT intensity (Sla1-2, P32790): 0
SPOT intensity (Hof1, Q05080): 1
SPOT intensity (Rvs167, P39743): 0
SPOT intensity (Bem1-1, P29366): 0
SPOT intensity (Bbc1, P47068): 4
SPOT intensity (Lsb1, P53281): 0
SPOT intensity (Myo3, P36006): 0
SPOT intensity (Pin3, Q06449): 0
SPOT intensity (Bzz1-2, P38822): 0
SPOT intensity (Boi1, P38041): 0
SPOT intensity (Hse1, P38753): 1
SPOT intensity (Abp1, P15891): 68
SPOT intensity (Bud14, P27637): 0
SPOT intensity (GST): 0
SPOT intensity (Pex13, P80667): 3
SPOT intensity (Bzz1-1, P38822): 0

SAPDIPPRSPNRNAH
SPOT intensity (Cyk3, Q07533): 0
SPOT intensity (Bem1-2, P29366): 0
SPOT intensity (Sla1-3, P32790): 3
SPOT intensity (Cdc25, P04821): 0
SPOT intensity (Nbp2, Q12163): 0
SPOT intensity (Sho1, P40073): 0
SPOT intensity (Fus1, P11710): 0
SPOT intensity (Boi2, P39969): 312
SPOT intensity (Lsb3, P43603): 207
SPOT intensity (Myo5, Q04439): 0
SPOT intensity (Lsb4, P32793): 145
SPOT intensity (Sla1-2, P32790): 423
SPOT intensity (Hof1, Q05080): 0
SPOT intensity (Rvs167, P39743): 816
SPOT intensity (Bem1-1, P29366): 0
SPOT intensity (Bbc1, P47068): 1
SPOT intensity (Lsb1, P53281): 857
SPOT intensity (Myo3, P36006): 0
SPOT intensity (Pin3, Q06449): 4
SPOT intensity (Bzz1-2, P38822): 0
SPOT intensity (Boi1, P38041): 240
SPOT intensity (Hse1, P38753): 0
SPOT intensity (Abp1, P15891): 8
SPOT intensity (Bud14, P27637): 2
SPOT intensity (GST): 0
SPOT intensity (Pex13, P80667): 21
SPOT intensity (Bzz1-1, P38822): 0

QGYPRQPQRPQRYHP
SPOT intensity (Cyk3, Q07533): 1
SPOT intensity (Bem1-2, P29366): 1
SPOT intensity (Sla1-3, P32790): 0
SPOT intensity (Cdc25, P04821): 0
SPOT intensity (Nbp2, Q12163): 0
SPOT intensity (Sho1, P40073): 0
SPOT intensity (Fus1, P11710): 0
SPOT intensity (Boi2, P39969): 0
SPOT intensity (Lsb3, P43603): 46
SPOT intensity (Myo5, Q04439): 0
SPOT intensity (Lsb4, P32793): 16
SPOT intensity (Sla1-2, P32790): 0
SPOT intensity (Hof1, Q05080): 3
SPOT intensity (Rvs167, P39743): 0
SPOT intensity (Bem1-1, P29366): 0
SPOT intensity (Bbc1, P47068): 34
SPOT intensity (Lsb1, P53281): 1
SPOT intensity (Myo3, P36006): 0
SPOT intensity (Pin3, Q06449): 2
SPOT intensity (Bzz1-2, P38822): 0
SPOT intensity (Boi1, P38041): 0
SPOT intensity (Hse1, P38753): 3
SPOT intensity (Abp1, P15891): 9
SPOT intensity (Bud14, P27637): 1
SPOT intensity (GST): 1
SPOT intensity (Pex13, P80667): 7
SPOT intensity (Bzz1-1, P38822): 0
